Measurements reported in US20240165255A1 (FRED HUTCHINSON CANCER CENTER, published 2024).

Target: folate receptor alpha (FOLR1) on MV4;11 FOLR1+ cells and on CBF/GLIS-transduced CB HSPCs (UniProt P15328 25-234, limits assumed)
Experiment: cell-based or functional assay

folate receptor alpha (FOLR1) on MV4;11 FOLR1+ cells and on CBF/GLIS-transduced CB HSPCs, sequence (P15328 25-234 limits assumed): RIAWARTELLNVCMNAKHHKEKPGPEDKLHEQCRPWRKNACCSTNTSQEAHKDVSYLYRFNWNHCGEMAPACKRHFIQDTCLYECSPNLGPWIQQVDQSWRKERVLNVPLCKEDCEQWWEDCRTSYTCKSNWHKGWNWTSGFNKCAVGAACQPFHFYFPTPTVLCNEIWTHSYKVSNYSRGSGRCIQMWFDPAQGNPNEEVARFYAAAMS

B1: FOLR1-directed site-specific antibody-drug Conjugate P (IgG antibody with VH region SEQ ID NO: 362 and VL region SEQ ID NO: 367, conjugate formula P, n=4) (antibody, V domains shown)
VH: EVQLVESGGGLVQPGGSLRLSCAASGFNIRTQSIHWVRQAPGKGLEWIGDIFPIDGITDYADSVKGRFTISADTSKNTAYLQMNSLRAEDTAVYYCARGSWSWPSGMDYYLDYWGQGTLVTVSS
VL: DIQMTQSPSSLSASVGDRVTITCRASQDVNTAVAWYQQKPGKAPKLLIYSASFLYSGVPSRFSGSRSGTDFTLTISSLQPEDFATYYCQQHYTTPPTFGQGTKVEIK
modifications: para-azidomethylphenylalanine residues substituting for Y180 and F404 of each VH region (so in the source); heavy chain positions), conjugated according to conjugate formula P, n=4 (hemiasterlin drug-linker)
- in vitro cytotoxicity IC50 (printed as '1050s') against CBF/GLIS-transduced CB HPSCs (which upregulate FOLR1): 4.2 nM
- in vitro cytotoxicity IC50 (printed as '1050s') against MV4;11 AML cell line engineered to express FOLR1 (MV4;11 FOLR1+): 0.1 nM
